Source: publication doi:10.1101/2020.01.05.895227
Changes are numbered by the printed parent chain.

Key:
Assay in all cases: EMSA
MBP-Dnmt5(345-747) = target: T1, MBP-Dnmt5(345-747) (Cryptococcus neoformans, UniProt J9VI03 345-747)
T1 sequence: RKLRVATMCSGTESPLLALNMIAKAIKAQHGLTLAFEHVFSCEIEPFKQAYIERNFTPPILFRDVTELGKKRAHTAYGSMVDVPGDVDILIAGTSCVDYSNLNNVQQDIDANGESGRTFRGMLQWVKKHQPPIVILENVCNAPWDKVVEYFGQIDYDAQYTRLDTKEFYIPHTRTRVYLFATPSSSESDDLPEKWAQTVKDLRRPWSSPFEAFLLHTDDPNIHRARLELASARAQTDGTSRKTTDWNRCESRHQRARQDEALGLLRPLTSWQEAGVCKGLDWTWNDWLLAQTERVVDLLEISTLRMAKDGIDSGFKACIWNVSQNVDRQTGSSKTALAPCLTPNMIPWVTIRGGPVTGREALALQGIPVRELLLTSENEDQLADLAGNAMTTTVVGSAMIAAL

Dnmt5 full-length [1] = target: T2, Dnmt5 full-length (Cryptococcus neoformans, UniProt J9VI03 1-2377)
[2] = target: T3, MBP-Dnmt5(1-150, W87A, Y90A) (Cryptococcus neoformans, UniProt J9VI03 1-150, W87A;Y90A)
T3 sequence: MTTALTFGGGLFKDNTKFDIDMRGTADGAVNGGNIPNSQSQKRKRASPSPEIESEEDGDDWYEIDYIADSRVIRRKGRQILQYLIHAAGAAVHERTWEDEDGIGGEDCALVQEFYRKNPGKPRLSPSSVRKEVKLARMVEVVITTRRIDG

Dnmt5 full-length [3] = target: T2, Dnmt5 full-length; remark: listed apart in the source

B1: Unmethylated 60 bp DNA (3 CG), Cy5 (dsDNA)
DNA 1: CATGGCCTAAGCCGGACTGAATGAGCAAGCTTCCGGAGAATTCTGCCGGACTGCAGATGC
DNA 2: GCATCTGCAGTCCGGCAGAATTCTCCGGAAGCTTGCTCATTCAGTCCGGCTTAGGCCATG
For B1, the Kd (MBP-Dnmt5(345-747)) was 7 ± 3 nM and the Kd (Dnmt5 full-length [1]) was 20 ± 5 nM.

B2: Hemimethylated 60 bp DNA (3 CG), Cy5 (dsDNA)
DNA 1: B1 DNA 1
DNA 2: B1 DNA 2
modifications: 5mC at strand 1 positions 13, 34, 47
In the case of B2, the Kd (MBP-Dnmt5(345-747)) is reported as 6 ± 2 nM, the Kd (Dnmt5 full-length [1]) is reported as < 1 nM and the binding result [2] is reported as “no binding”.

B3: Unmethylated 60 bp DNA, one CG, Cy5 (dsDNA)
DNA 1: B1 DNA 1 with C13A, C47A
DNA 2: B1 DNA 2 with G14T, G48T
For B3, the binding signal (Dnmt5 full-length [3]) was 1 reference; abasic DNA binds 5-fold tighter.
